Sequences and labels used below:
B1: 847.2B8 (antibody, V domains shown)
VH: QVQLKQSGPGLVQPSQSLSITCTVSGFSLINYGVHWVRQSPGKGLEWLGVIWSGGSTDYNAAFISRLSISKDNSKSQVFFKMNSLQADDTAIYYCARIYYYGRGYAMDYWGQGTSVTVSS
VL: QILLSQSPAILSASPGEKVTMTCRASSSVTYMYWYQQKPGSSPQPWIYATSNLASGVPARFSGSGSGTSYSLTISRVEAEDAATYYCQQWSSNPLTFGAGTKLELK
B2: 847.4D3 (antibody, V domains shown)
VH: EVQLVESGGGLVKPGGSLKLSCAASGFTFSSYAMSWVRQTPEKRLEWVASISSGDSPYYPDSVKGRFTISRDNARNILYLQMSSLRSEDTAMYYCTRFTTVVEMDYWGQGTSVTVSS
VL: DVVMTQTPKFLPITAEDRVTITCKASQSVSNEVAWYQQKPGQSPKLLIYYASNRYTGVPDRFTGSGSGTDFTFTIRSVQLEDLAVYFCQQHYSSPWTFGGGTKLEIK
B3: 847.28D1 (antibody, V domains shown)
VH: QVQLVETGPGLVAPSQSLSITCTVSGFSLTSYGVHWIRQSPGKGLEWLGTIWAGGSTDYNSPLMSRLSISKDNSKNQVFLKMNSLQIDDTAIYYCASPPSGYDYDVFASWGQGTLVTVSA
VL: DIRMTQSPASLSASVGETVTITCRASGNIHNYLAWYHQKQGKSPQLLVYNVKTLADGVPSRFSGSGSGTQFSLKINSLQPEDFGTYYCQHFWSIFPTFGGGTKLEIK
B4: 847.3B3 (antibody, V domains shown)
VH: B3 VH with V5K, T7S, S40P, T50G, S70T, N76S, I87S, I92M, S109Y
VL: B3 VL with R3L, H37Q, N50S, V51A, N76D, I94L
B5: 847.15D12 (antibody, V domains shown)
VH: QVQLQQSGAELMKPGASVKISCKATGYTFTNYWIEWVKQRPGHGLEWIGEFLPGDGSSHYNEKFKGKATFTSDTSSNTAYIHLTSLTSEDSAVYYCVRDDYDSDYWAQGTTLTVSS
VL: QAVVTQESALTTSPGETVTLTCRSSTGAVTTSNYANWVQEKPDHLFTGLIGGTNNRAPGVPARFSGSLIGDKAALTITGAQTEDEAIYFCALWYSNHLVFGGGTKLTVL
B6: F846C.1F5 (antibody, human IgG4 S228P, kappa, V domains shown)
VH: QIQLVQSGPELKKPGETVKISCKASGYTFTNYGMNWVKQAPGKGLKWMGWINTYTGEPSYADDFKGRFAFSLETSASTAYLQINNLKNEDMATYFCARWGGYDGDYYAMDYWGQGTSVTVSS
VL: NIMMTQSPSSLAVSAGEKVTMSCKSSQSVLYSSNQKNYLAWYQQKPGQSPKLLIYWASTRESGVPDRFTGSGSGTDFTLTISSVQPEDLAVYYCHQYLSSLTFGAGTKLELKR
B7: F846C.2H3 (antibody, human IgG4 S228P, kappa, V domains shown)
VH: B6 VH
VL: B6 VL
B8: F846C.1B2 (antibody, human IgG4 S228P, kappa, V domains shown)
VH: B6 VH with D103A, Y111F
VL: B6 VL with M3W, M4L, K18M, S22T, T78S, P86A
B9: F846TC.16B5 (antibody, human IgG4 S228P, kappa, V domains shown)
VH: B6 VH with S59A
VL: B6 VL with P86A
B10: F846C.1H12 (antibody, human IgG4 S228P, kappa, V domains shown)
VH: B6 VH with Y32F, M91I, D103A
VL: B6 VL with E17Q, N34S, T69S
B11: 13G4.2F8 (antibody, human IgG4 S228P, kappa, V domains shown)
VH: QVQLQQPGAELVKPGASVKLSCKASGYTFTSYWMHWVKQRPGQGLEWIGMIHPNSGSTDYNEKFKNKATLNVDKSSSTAYIQLSSLTSEDSAVYYCTRWGIYYYARDYWGQGTTLTVSS
VL: DIVMTQSQKFMSTSVGERVSITCKASQNVGTNVAWYQQKAGQSLELLIYGASNRHTGVPDRFTGSGSGTDFTLTITNVQSEDMTNYFCEQYSNFPLTFGAGTKLELKR
B12: 6B3.2D3 (antibody, human IgG4 S228P, kappa, V domains shown)
VH: QVQLKQSGPGLVQPSQSLSITCTVSGFSLTSYGVHWVRQPPGKGLEWLGVIWSGGSTDYNAAFISRLSISKDNSKSQVFFKMNSLQADDTAIYYCAKGPYDYDLGWFAYWGQGTLVTVSA
VL: SIVMTQTPKFLLVSAGDRVTITCKASQSVSNDVAWYQQKPGQSPKLLIYYASNRYTGVPDRFTGSGYGTDFTFTISTVQAEDLAVYFCQQDYTSPYTFGGGTKLEIKR
B13: 847.11D6 (antibody, V domains shown)
VH: EVKLQQSGPELMKPGTSMKISCKASGYSFTGYTMNWVKQSHGKNLEWIGLINPYNGGTNYNQKFRGKATLSVDKSSNTAYMELLSLTSEDSAVYYCARKDDYYGSSPYALDYWGQGTSVTVSS
VL: DIVMTQSPASLAVSLGQRATISCRASESVENHVNSFMHWFQQKPGQPPKLLIYRASNLQSGIPARFSGSGSRTDFTLTINPVEADDVATYYCQQNNEVPYTFGGGTKLEIK
B14: 849.1D2 (antibody, V domains shown)
VH: QVQLKESGPVLVAPSQSLSITCTVSGFSLSSYGVHWVRQPPGKGLEWLGVIWAGGSTDYDSALMSRLSISKDNSKSQVFLKMDSLQTDDTAMYYCAKPPYDYDGAWFAYWGQGTLVTVSA
VL: DVVMTQTPKFLLVSAGDRVTITCKASQSVSSDVAWYQQKPGQSPKLLIYFASNRYTGVPDRFTGSGYGTDFTFTISTVQAEDLAVYFCQHNYISPFTFGGGTKLEIK
B15: 847.12C4 (antibody, V domains shown)
VH: QVQLKESGPDLVQPSQTLSLTCTVSGFSLTIYGVHWVRQPPGKGLEWVGTVAWDDKKYYNSPLQSRLSISRDTSKNQVFLKLSSLQTEDTAMYYCTMTGGPINYWGPGTSVTVSS
VL: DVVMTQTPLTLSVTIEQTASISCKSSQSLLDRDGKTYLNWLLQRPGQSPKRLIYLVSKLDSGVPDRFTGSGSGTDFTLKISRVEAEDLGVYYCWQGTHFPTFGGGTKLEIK
B16: 847.10C9 (antibody, V domains shown)
VH: EVQLQQSGAELVRPGTSVKVSCKASEYAFNNYMMEWVKQRPGQGLEWIGVINPGSGATNYNENFKDKATLTADKSSTTAYMQLSSLTSDDSAVYFCTYNDLGYWGQGTLVTVSA
VL: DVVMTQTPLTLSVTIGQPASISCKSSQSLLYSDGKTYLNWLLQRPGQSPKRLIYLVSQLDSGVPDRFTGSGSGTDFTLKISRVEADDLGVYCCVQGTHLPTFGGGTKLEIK
B17: 847.27B9 (antibody, V domains shown)
VH: QIQLVQSGPELKKPGETVKISCKASGYTFTNYGMNWVKQAPGKGLKWMGWINTNTGEPTYAEEFKGRFAFSLETSASTAYLQINYLKNEDTATFFCARLDYDYDEDYWGQGTTLTVSS
VL: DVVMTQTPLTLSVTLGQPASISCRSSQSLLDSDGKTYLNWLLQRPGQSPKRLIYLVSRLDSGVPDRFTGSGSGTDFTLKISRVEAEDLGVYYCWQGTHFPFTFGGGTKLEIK
B18: 847.20H7 (antibody, V domains shown)
VH: QVQLQQSGAELVRPGASVNLSCKASGYTFTNYWMNWVKQRPGQGLEWVGMIDPSDSETHYNQMFKDKATLTIDKSSSIAYMQLSSLTSEDSAVYYCARWGAMDYWGQGTSVTVSS
VL: DIVMTQSHKIMSTSVGDRVSITCKASQDVSTTVAWFQQKPGQSPKLLLYWASTRHTGVPDRFTGSGSGTDYTLTISSVQAEDLALYYCQQHYSPPFTFGSGTKLEIK
B19: 847.15H11 (antibody, V domains shown)
VH: EVQLQQSGAEVVKPGAPVKLSCKASGYTFNNYWLNWVKQRPGRGLEWIGRIDPSDSETHYNQKFKDKATLTVDMSSSTAYIQLSSLTSEDSAVYYCARGDYYYGTRGPMDYWGQGTSVTVSS
VL: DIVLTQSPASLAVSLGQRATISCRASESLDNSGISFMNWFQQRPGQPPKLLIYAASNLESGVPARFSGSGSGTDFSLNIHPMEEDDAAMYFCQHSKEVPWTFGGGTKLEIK
B20: 9H2.2H10 (antibody, human IgG4 S228P, kappa, V domains shown)
VH: QVQLQQPGAELVGPGSSVKLSCKASGYTFTNYWIHWVKQRPLQGLEWIGNIDPSDSETHYNQKFKDKATLTVDKSSSTAYMQLSSLTSEDSAVYYCARHGYYDYWGQGTTLTVSS
VL: DIVMTQSHKFMSTSVGDRVSITCKASQDVSTAVAWYQQKPGQSPKLLIYWASTRHTGVPDRFTGSGSGTDYTLTISSVQAEDLALYYCQQHYTTPLTFGAGTKLELKR

Residue numbers refer to the chain shown, from its start. Names may count otherwise.
For % inhibition of CD62L shedding in this document: test concentration or dose not given here.
For % inhibition of IL-6 secretion in this document: test concentration or dose not given here.
For % inhibition of TNFα secretion in this document: test concentration or dose not given here.

T1 sequence (P17931 2-250 limits assumed): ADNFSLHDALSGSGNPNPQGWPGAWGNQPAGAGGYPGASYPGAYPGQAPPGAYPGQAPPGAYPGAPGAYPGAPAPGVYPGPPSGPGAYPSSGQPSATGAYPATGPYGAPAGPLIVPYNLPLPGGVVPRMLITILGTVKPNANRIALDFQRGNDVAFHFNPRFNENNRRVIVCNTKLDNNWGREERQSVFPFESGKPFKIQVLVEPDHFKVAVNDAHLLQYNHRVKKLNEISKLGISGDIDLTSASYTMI

One test addresses T1, human Gal3 protein (recombinant human Galectin-3) (human, UniProt P17931 2-250).
T1 construct: also called hGal3; hGAL3
The test can be described thus: SPR (Carterra LSA), antibody immobilised on HC200M chip, hGal3 injected.
Take B1: the binding result was “no binding”.
The same measure, in the same setting: with B2 the entry was “no binding”.

For the next test, the target named is T2, Recombinant human Gal3 (rhGal3) (TrueBinding, #QC200361) (human, UniProt P17931 2-250). Description: cell-based or functional assay.
Consider B3, for which the “% inhibition of CD62L shedding” value amounted to 110%.
On the same count and under the same terms, next, B4: 43.4%.
Still for that read-out and setting: next, B1: 7%.
Same read-out and setting: next, B5: 15.4%.
For the molecule B6, the “% inhibition of CD62L shedding” value came out at 76.3%.
On the same count and under the same terms, next, B7: 93.6%; B8: 99%; B9: 84.2%.
On the same count and under the same terms, next, B10: 100%.
On to B11, for which the “% inhibition of CD62L shedding” value was 94.3%.
For the molecule B12, the “% inhibition of CD62L shedding” value was found to be 98.9%.
As to B13, the “% inhibition of CD62L shedding” value came to 83.2%.
With B14, the “% inhibition of CD62L shedding” value stood at 130%.
Same read-out and setting: with B15 the figure was 150%.
On the same count and under the same terms, next, B16: 150%; B2: 7.5%.
Take B17: the “% inhibition of CD62L shedding” value is 87.9%.
The same measure, in the same setting: next, B18: 63.4%; B19: 39.3%; B20: 67.7%.

A further test deals with T2, Recombinant human Gal3 (rhGal3) …. Description: cell-based or functional assay. The source holds these as a separate data set.
Take B3: the “% inhibition of IL-6 secretion” value was found to be 78.6% and the “% inhibition of TNFα secretion” value was 80.5%.
The like results for B4 were, in that order, 72.3% and 94.3%.
The like results for B5 were, in that order, -71.9% and -153%.
The like results for B6 were, in that order, -16% and 51.7%.
Regarding B7, the “% inhibition of IL-6 secretion” value was -49.1% and the “% inhibition of TNFα secretion” value amounted to 62.8%.
Take B8: the “% inhibition of IL-6 secretion” value was -9% and the “% inhibition of TNFα secretion” value is 43.9%.
The like results for B9 were, in that order, -204% and -11.4%.
The like results for B10 were, in that order, 51.8% and 95.3%.
The like results for B11 were, in that order, 55.1% and 83.2%.
On to B12, for which the “% inhibition of IL-6 secretion” value was 0.2% and the “% inhibition of TNFα secretion” value was -1.2%.
The like results for B13 were, in that order, 22.7% and -3.1%.
The like results for B14 were, in that order, 26.8% and 37%.
The like results for B15 were, in that order, -0.7% and -5.4%.
On to B16, for which the “% inhibition of IL-6 secretion” value is > -1000% and the “% inhibition of TNFα secretion” value was -246%.
The like results for B17 were, in that order, -84.7% and 70.1%.
In the case of B18, the “% inhibition of IL-6 secretion” value was -155% and the “% inhibition of TNFα secretion” value was -185%.
Turning to B19, the “% inhibition of IL-6 secretion” value amounted to 94.7% and the “% inhibition of TNFα secretion” value amounted to 100%.
As to B20, the “% inhibition of IL-6 secretion” value is -99.1% and the “% inhibition of TNFα secretion” value is -39.2%.

The record behind these values is US20250243282A1 (TRUEBINDING, published 2025).
